This passage reports IC50 results from patent publication US20110293613A1 (Hoffmann-La Roche, published 2011).

Assay [1] deals with T1, human Insulin-like growth factor I receptor (IGF-1R) on tumor cells (human, UniProt P08069 31-1367).
T1 construct: Endogenously expressed on the human tumor cell lines; also called IGF-IR; CD 221 antigen
Description: competitive FACS binding on A549 cells, competitor labeled <IGF-1R> HUMAB Clone 18, Exp. #1. (In general: A flow cytometer gives signals particle by particle.)

Assay [2] deals with T1, human Insulin-like growth factor I …. The experiment in a line: competitive FACS binding on TC-71 cells, competitor labeled <IGF-1R> HUMAB Clone 18, Exp. #2.
Assay [3] has the same target. Description: competitive FACS binding on A549 cells, competitor labeled <IGF-1R> HUMAB Clone 18, Exp. #2.
Assay [4] shares this target. The experiment in a line: competitive FACS binding on TC-71 cells, competitor labeled <IGF-1R> HUMAB Clone 18, Exp. #1.

T1 sequence (P08069 31-1367 limits assumed): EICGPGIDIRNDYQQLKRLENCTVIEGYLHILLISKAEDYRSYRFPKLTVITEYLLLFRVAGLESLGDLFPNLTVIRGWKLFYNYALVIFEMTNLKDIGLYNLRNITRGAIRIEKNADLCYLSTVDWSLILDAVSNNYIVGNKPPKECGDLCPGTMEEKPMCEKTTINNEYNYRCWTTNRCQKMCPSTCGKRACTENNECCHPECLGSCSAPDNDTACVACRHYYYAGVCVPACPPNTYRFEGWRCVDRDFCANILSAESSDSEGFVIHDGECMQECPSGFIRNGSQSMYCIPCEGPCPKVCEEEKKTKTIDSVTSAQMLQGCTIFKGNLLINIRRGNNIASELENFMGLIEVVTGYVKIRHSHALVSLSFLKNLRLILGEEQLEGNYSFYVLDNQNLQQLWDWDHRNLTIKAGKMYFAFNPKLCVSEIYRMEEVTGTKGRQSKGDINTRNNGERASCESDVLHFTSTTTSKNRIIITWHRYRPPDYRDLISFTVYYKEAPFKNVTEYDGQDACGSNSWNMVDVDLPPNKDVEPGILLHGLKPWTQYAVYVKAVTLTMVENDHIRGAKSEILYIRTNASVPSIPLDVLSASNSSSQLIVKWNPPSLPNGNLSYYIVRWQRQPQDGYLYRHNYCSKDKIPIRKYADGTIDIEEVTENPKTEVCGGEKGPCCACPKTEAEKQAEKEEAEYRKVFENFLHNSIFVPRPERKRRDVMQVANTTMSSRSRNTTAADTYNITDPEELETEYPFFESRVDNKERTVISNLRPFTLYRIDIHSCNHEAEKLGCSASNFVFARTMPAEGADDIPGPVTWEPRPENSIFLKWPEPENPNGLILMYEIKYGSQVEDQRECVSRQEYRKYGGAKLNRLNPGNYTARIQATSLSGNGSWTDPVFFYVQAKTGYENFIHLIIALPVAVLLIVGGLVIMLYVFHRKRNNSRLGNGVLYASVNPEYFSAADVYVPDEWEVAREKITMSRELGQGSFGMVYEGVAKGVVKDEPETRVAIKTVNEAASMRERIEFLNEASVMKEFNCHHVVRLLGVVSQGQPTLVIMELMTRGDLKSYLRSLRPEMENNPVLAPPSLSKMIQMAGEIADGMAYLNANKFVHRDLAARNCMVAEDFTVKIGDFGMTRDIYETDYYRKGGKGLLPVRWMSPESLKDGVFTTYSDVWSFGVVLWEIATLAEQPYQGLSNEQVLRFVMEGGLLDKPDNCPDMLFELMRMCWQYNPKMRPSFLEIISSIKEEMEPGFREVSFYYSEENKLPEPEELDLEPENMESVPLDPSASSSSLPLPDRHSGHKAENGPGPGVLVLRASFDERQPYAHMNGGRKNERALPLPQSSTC

B1: human anti-IGF-1R antibody <IGF-1R> HUMAB Clone 18 (DSM ACC 2587) (antibody, V domains shown)
VH: QVELVESGGGVVQPGRSQRLSCAASGFTFSSYGMHWVRQAPGKGLEWVAIIWFDGSSTYYADSVRGRFTISRDNSKNTLYLQMNSLRAEDTAVYFCARELGRRYFDLWGRGTLVSVSS
VL: EIVLTQSPATLSLSPGERATLSCRASQSVSSYLAWYQQKPGQAPRLLIYDASKRATGIPARFSGSGSGTDFTLTISSLEPEDFAVYYCQQRSKWPPWTFGQGTKVESK
In the case of B1, the IC50 (commonly the concentration that gives 50% inhibition) in assay [1] came out at 1.6 nM; in assay [2], 1.5 nM; in assay [3] it was 1.5 nM; in assay [4], 1.4 nM.
